Assay results taken from PMC10397247.

Legend:
4H3627-AA = biological target: T1, 4H3627-AA; test: two-hybrid library CCmax; settings: mean of both orientations;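 also: natural log of median RNA to DNA barcode read ratio; higher means stronger binding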
T1 chain: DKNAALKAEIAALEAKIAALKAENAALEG

4H3427-AA = biological target: T2, 4H3427-AA; test: two-hybrid library CCmax; settings: mean of both orientations;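 also: natural log of median RNA to DNA barcode read ratio; higher means stronger binding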
T2 chain: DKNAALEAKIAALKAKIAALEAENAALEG

4H794-AA = biological target: T3, 4H794-AA; test: two-hybrid library CCmax; settings: mean of both orientations;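 also: natural log of median RNA to DNA barcode read ratio; higher means stronger binding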
T3 chain: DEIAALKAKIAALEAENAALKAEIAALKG

4H342-AA = biological target: T4, 4H342-AA; test: two-hybrid library CCmax; settings: mean of both orientations;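 also: natural log of median RNA to DNA barcode read ratio; higher means stronger binding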
T4 chain: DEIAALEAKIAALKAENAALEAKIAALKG

4H605-AA = biological target: T5, 4H605-AA; test: two-hybrid library CCmax; settings: mean of both orientations;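 also: natural log of median RNA to DNA barcode read ratio; higher means stronger binding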
T5 chain: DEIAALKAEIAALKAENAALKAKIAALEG

4H454-AA = biological target: T6, 4H454-AA; test: two-hybrid library CCmax; settings: mean of both orientations;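 also: natural log of median RNA to DNA barcode read ratio; higher means stronger binding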
T6 chain: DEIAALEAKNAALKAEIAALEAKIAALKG

4H3921-AA = biological target: T7, 4H3921-AA; test: two-hybrid library CCmax; settings: mean of both orientations
T7 chain: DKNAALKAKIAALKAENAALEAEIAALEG

4H780-AA = biological target: T8, 4H780-AA; test: two-hybrid library CCmax; settings: mean of both orientations
T8 chain: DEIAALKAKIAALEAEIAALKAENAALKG

4H3655-AA = biological target: T9, 4H3655-AA; test: two-hybrid library CCmax; settings: mean of both orientations
T9 chain: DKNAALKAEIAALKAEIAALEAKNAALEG

4H993-AA = biological target: T10, 4H993-AA; test: two-hybrid library CCmax; settings: mean of both orientations
T10 chain: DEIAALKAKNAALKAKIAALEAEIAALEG

4H429-AA = biological target: T11, 4H429-AA; test: two-hybrid library CCmax; settings: mean of both orientations
T11 chain: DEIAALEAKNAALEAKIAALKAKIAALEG

4H906-AA = biological target: T12, 4H906-AA; test: two-hybrid library CCmax; settings: mean of both orientations
T12 chain: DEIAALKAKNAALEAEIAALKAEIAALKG

4H335-AA = biological target: T13, 4H335-AA; test: two-hybrid library CCmax
T13 chain: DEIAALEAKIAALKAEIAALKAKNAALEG

4H566-AA = biological target: T14, 4H566-AA; test: two-hybrid library CCmax; settings: mean of both orientations
T14 chain: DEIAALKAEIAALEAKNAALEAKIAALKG

4H881-AA = biological target: T15, 4H881-AA; test: two-hybrid library CCmax; settings: mean of both orientations
T15 chain: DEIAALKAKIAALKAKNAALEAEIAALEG

4H3844-AA = biological target: T16, 4H3844-AA; test: two-hybrid library CCmax; settings: mean of both orientations
T16 chain: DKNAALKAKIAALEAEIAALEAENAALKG

4H717-AA = biological target: T17, 4H717-AA; test: two-hybrid library CCmax; settings: mean of both orientations
T17 chain: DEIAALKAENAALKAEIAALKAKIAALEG

4H678-AA = biological target: T18, 4H678-AA; test: two-hybrid library CCmax; settings: mean of both orientations
T18 chain: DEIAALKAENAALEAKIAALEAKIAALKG

4H428-AA = biological target: T19, 4H428-AA; test: two-hybrid library CCmax
T19 chain: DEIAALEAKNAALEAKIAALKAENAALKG

4H478-AA = biological target: T20, 4H478-AA; test: two-hybrid library CCmax; settings: mean of both orientations
T20 chain: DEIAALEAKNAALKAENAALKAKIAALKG

4H656-AA = biological target: T21, 4H656-AA; test: two-hybrid library CCmax; settings: mean of both orientations
T21 chain: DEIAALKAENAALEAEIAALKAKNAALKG

4H497-AA = biological target: T22, 4H497-AA; test: two-hybrid library CCmax; settings: mean of both orientations
T22 chain: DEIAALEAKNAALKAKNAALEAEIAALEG

4H675-AA = biological target: T23, 4H675-AA; test: two-hybrid library CCmax; settings: mean of both orientations
T23 chain: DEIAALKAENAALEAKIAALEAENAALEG

4H971-AA = biological target: T24, 4H971-AA; test: two-hybrid library CCmax; settings: mean of both orientations
T24 chain: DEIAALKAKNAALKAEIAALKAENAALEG

4H63-AA = biological target: T25, 4H63-AA; test: two-hybrid library CCmax; settings: mean of both orientations
T25 chain: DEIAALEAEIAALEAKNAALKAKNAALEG

4H432-AA = biological target: T26, 4H432-AA; test: two-hybrid library CCmax
T26 chain: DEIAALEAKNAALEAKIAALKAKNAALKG

4H446-AA = biological target: T27, 4H446-AA; test: two-hybrid library CCmax; settings: mean of both orientations
T27 chain: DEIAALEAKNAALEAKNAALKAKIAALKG

4H908-bN = biological target: T28, 4H908-bN; test: two-hybrid library CCNG1
T28 chain: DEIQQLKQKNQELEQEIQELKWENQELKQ

4H883-bN = biological target: T29, 4H883-bN; test: two-hybrid library CCNG1
T29 chain: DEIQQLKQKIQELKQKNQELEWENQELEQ

4H967-bN = biological target: T30, 4H967-bN; test: two-hybrid library CCNG1
T30 chain: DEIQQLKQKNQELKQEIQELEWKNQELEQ

4H918-bN = biological target: T31, 4H918-bN; test: two-hybrid library CCNG1
T31 chain: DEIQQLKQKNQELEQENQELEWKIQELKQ

4H953-bN = biological target: T32, 4H953-bN; test: two-hybrid library CCNG1
T32 chain: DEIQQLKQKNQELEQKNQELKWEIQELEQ

4H850-bA = biological target: T33, 4H850-bA; test: two-hybrid library CCNG1
T33 chain: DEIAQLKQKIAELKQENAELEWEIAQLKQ

4H906-bA = biological target: T34, 4H906-bA; test: two-hybrid library CCNG1
T34 chain: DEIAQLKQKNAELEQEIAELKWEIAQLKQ

Binder: DEIAALEAKIAALKAEIAALKAKNAALEG [4H335-AA]
- interaction score (4H3627-AA): 1.23
- interaction score (4H3427-AA): -0.982
- interaction score (4H794-AA): -1.3
- interaction score (4H342-AA): -0.154
- interaction score (4H605-AA): -1.51
- interaction score (4H454-AA): 0.512
- interaction score (4H3921-AA): -0.804
- interaction score (4H780-AA): -0.326
- interaction score (4H3655-AA): 0.662
- interaction score (4H993-AA): -0.48
- interaction score (4H429-AA): -0.695
- interaction score (4H906-AA): -1.22
- interaction score (4H335-AA): 1.81
- interaction score (4H566-AA): -1.09
- interaction score (4H881-AA): -1.54
- interaction score (4H3844-AA): 1.22
- interaction score (4H717-AA): -1.46
- interaction score (4H678-AA): -1.15

Binder: DEIAALEAKNAALEAKIAALKAENAALKG [4H428-AA]
- interaction score (4H428-AA): 0.174
- interaction score (4H478-AA): -1.71
- interaction score (4H656-AA): -0.675
- interaction score (4H497-AA): -1.47
- interaction score (4H675-AA): 0.166
- interaction score (4H971-AA): -0.222

Binder: DEIAALEAKNAALEAKIAALKAKNAALKG [4H432-AA]
- interaction score (4H63-AA): -1.92
- interaction score (4H432-AA): -1.51
- interaction score (4H446-AA): -1.7

Binder: DEIQQLKQKIQELKQKNQELEWENQELEQ [4H883-bN]
- interaction score (4H908-bN): -1.19
- interaction score (4H883-bN): -1.15
- interaction score (4H967-bN): -0.861
- interaction score (4H918-bN): -0.986
- interaction score (4H953-bN): -1.82

Binder: DEIAQLKQKIAELKQENAELEWEIAQLKQ [4H850-bA]
- interaction score (4H850-bA): 0.428
- interaction score (4H906-bA): -1.27
